From patent US20130158238A1 (THERACLONE SCIENCES, published 2013)
Positions count from the first letter of the chain named.

B1: TCN-031 Fab fragment (Fab, V domains shown)
VH: EVQLVESGGGLVQPGGSLRISCAASGFTVSSNYMSWVRQAPGKGLEWVSVIYSGGSTYYADSVKGRFSFSRDNSKNTVFLQMNSLRAEDTAVYYCARCLSRMRGYGLDVWGQGTTVTVSS
VL: DIQMTQSPSSLSASVGDRVTITCRTSQSISSYLNWYQQKPGKAPKLLIYAASSLQSGVPSRFSGSGSGTDFTLTISGLQPEDFATYYCQQSYSMPAFGQGTKLEIK
B2: TCN-032 Fab fragment (Fab, V domains shown)
VH: QVQLQESGPGLVKPSETLSLTCTVSGSSISNYYWSWIRQSPGKGLEWIGFIYYGGNTKYNPSLKSRVTISQDTSKSQVSLTMSSVTAAESAVYFCARASCSGGYCILDYWGQGTLVTVSS
VL: DIQMTQSPSSLSASVGDRVTITCRASQNIYKYLNWYQQRPGKAPKGLISAASGLQSGVPSRFSGSGSGTDFTLTITSLQPEDFATYYCQQSYSPPLTFGGGTRVEIK
B3: 3241_G23 (antibody, V domains shown)
VH: QVQLQQSGPGLVKPSQTLSLTCTVSGGPVSGGGYSWNWIRQRPGQGLEWVGFMFHSGSPRYNPTLKSRITISVDTSKNLVSLKLSSVTAADTAVYFCARVGQMDKYYAMDVWGQGTTVTVSS
VL: DIQMTQSPSSLSSSVGDRVTITCRASQSIGAYVNWYQQKAGKAPQVLIFGASNLQSGVPSRFSGSGSGTDFTLTISSLQPEDFATYFCQQTYSTPITFGQGTRLEIK
B4: 3244_I10 (antibody, V domains shown)
VH: QVQLQESGPGLLKPSDTLALTCTVSGGSITSDYWSWIRQPPGRGLDWIGFFYNGGSTKYNPSLKSRVTISADTSKNQLSLKLTSVTAADTGVYYCARHDAKFSGSYYVASWGQGTRVTVSS
VL: DIQMTQSPSSLSASVGDRVTISCRASQSISTYLNWYQQQPGKAPKVLIFGATNLQSGVPSRFSGSGSGTDFTLTISSLQPEDFATYYCQQSYNTPLIFGQGTKLEIK
B5: 3243_J07 (antibody, V domains shown)
VH: B4 VH with A100V
VL: B4 VL with F49S
B6: 3259_J21 (antibody, V domains shown)
VH: QVQLQESGPRVVRPSETLSLTCTVSGGSISSYNWIWIRQPPGKGLEWIGHIYDYGRTFYNSSLQSRPTISVDASKNQLSLRLTSVTASDTAVYYCARPLGILHYYAMDLWGQGTTVTVSS
VL: DIQMTQSPLSVSVSVGDRVTIACRASQSIDKFLNWYQQKPGKAPKLLIYGASNLHSGAPSRFSASGSGTDFTLTITNIQTEDFATYLCQQSFSVPAFGGGTKVEIK
B7: 3245_O19 (antibody, V domains shown)
VH: EVQLVESGGGLVQPGGSLRLSCTASGLSVSSTYMNWVRQAPGKGLEWVSVFYSETRTYYADSVKGRFTVSRHNSNNTLYLQMNSLRVEDTAVYYCARVQRLSYGMDVWGQGTTVTVSS
VL: DIQMTQSPSSLSASVGDRVTITCRASQSISTYLNWYQKRPGKAPKLLVYGASTLQSGVPSRFSGSGSGTDFTLTIASLQPEDSATYYCQQTYSIPLFGQGTRLEIK
B8: 3244_H04 (antibody, V domains shown)
VH: B7 VH with V87A
VL: B7 VL with T53S, T85V
B9: 3136_G05 (antibody, V domains shown)
VH: QVQLQESGPGLVKPSETLSLTCSVSGGSISSDFWSWIRQPPGKGLEWIGYVYNRGSTKYSPSLKSRVTISADMSKNQFSLNMSSVTAADTAVYYCAKNGRSSTSWGIDVWGKGTTVTVSS
VL: DIQMTQSPSSLSASVGDRLTITCRASQSISTYLHWYQQKPGKAPKLLIYAASSLQSGVPSRFSGSRSGTDFTLTISSLQPDDFATYYCQQSYSPPLTFGPGTKVDMK
B10: 3252_C13 (antibody, V domains shown)
VH: QVQLQESGPGLVKPSETLSLTCTVSGASISSDYWSWIRLPPGKGLEWIGYIYNRGSTKYTPSLKSRVTISLDTAENQFSLRLRSVTAADTAIYYCARHVGGHTYGIDYWGQGTLVTVSS
VL: DIQMTQSPSSLSASVGDRVTITCRASQSISNYLNWYQHKPGEAPKLLNYAASSLQSGVPSRFSASGSGTDFTLTISSLQPEDFATYYCQQSYNTPITFGQGTRLEIK
B11: 3255_J06 (antibody, V domains shown)
VH: B10 VH with I92V
VL: B10 VL with T74S, S77G, Q100P
B12: 3420_I23 (antibody, V domains shown)
VH: QVQLQESGPGLVKPSETLSVTCKVSGDSISSYSWSWIRQPPGKGLEWVGYLYYSGSTKYNPSLKSRTTISVDTSTNQLSLKLSFVTAADTAVYFCARTGSESTTGYGMDVWGQGTTVTVSS
VL: B10 VL with N31T, H38Q, E42K, N48I, Q55H, A64G, T72A, N93S, T94P
B13: 3139_P23 (antibody, V domains shown)
VH: QVQLQESGPRLVKPSESLSLTCTVSGGSISNSFWGWIRQPPGEGLEWIGYVYNSGNTKYNPSLKSRVTISRDTSKSQLYMKLRSVTAADTAVYYCARHDDASHGYSISWGHGTLVTVSS
VL: DIQMTQSPSSLSASVGDRVTITCRASQTISTYLNWYQQKSGKAPKLLIYAASGLQSGVPSRFSGSGSGTDFTLTISSLQPEDFATYFCQQSYNTPLTFGQGTKVEIK
B14: 3248_P18 (antibody, V domains shown)
VH: QVQLQESGPGLVKPSETLSLTCTVSGGSISAYHWSWIRQPPGKGLEWIGHIFDSGSTYYNPSLKSRVTISLDASKNQLSLRLTSVTASDTAIYYCARPLGSRYYYGMDVWGQGTTVTVSS
VL: DIQMTQSPSSLSASVGDRVTITCRASQSISRYLNWYQQKPGKAPKLLIYGASTLQNGAPSRFSGSGSGTDFTLTISSLQPEDSATYLCQQSYSVPAFGGGTKVEVK
B15: 3253_P10 (antibody, V domains shown)
VH: B4 VH
VL: B4 VL with F49S, N53D
B16: 3260_D19 (antibody, V domains shown)
VH: DMQLVESGGGLVPPGGSLRLSCAASGFSVSDNYINWVRQAPGKGLDWVSVFYSADRTSYADSVKGRFTVSSHDSKNTVYLQMNSLRAEDTAVYYCARVQKSYYGMDVWGQGTTVTVSS
VL: GIQMTQSPSSLSASVGDRVTITCRASQSISRYLNWYLQKPGKAPKLLISGASSLQSGVPSRFSGTGSGTEFTLTISSLQPEDFATYYCQQTFSIPLFGQGTKVEIK
B17: 3362_B11 (antibody, V domains shown)
VH: QVQLQASGPGLVKPSETLSLTCTVSGDSITSGAYYWTWIRQHPGKGLEWIGYIYYSGNTYYNPSLKSRVTISLDTSKNQFSLKVNSVTAADTAVYYCARAASTSVLGYGMDVWGQGTTVTVSS
VL: B10 VL with N31R, H38Q, K39E, E42K, N48V, A64G, N93S, I96L
B18: 3242_P05 (antibody, V domains shown)
VH: B16 VH
VL: B16 VL

Biological target: M2 protein of A/Puerto Rico/8/34 (H1N1), on cells (Influenza A virus A/Puerto Rico/8/34 (H1N1)) (UniProt P06821)
Assay: flow cytometry on MDCK cells infected with A/Puerto Rico/8/34

Row | Molecule | EC50 (read off the curve) [mg/L]
1 | TCN-031 (antibody) | 0.2
2 | TCN-032 (antibody) | 0.1

Biological target: M2 protein on influenza A/Puerto Rico/8/34 (H1N1) virus particles (Influenza A virus A/Puerto Rico/8/34 …, UniProt P06821 1-97)
Assay: surface plasmon resonance, Fab on influenza virus

Row | Molecule | Kd [nM] | koff [s⁻¹] | kon [M⁻¹ s⁻¹]
3 | B1 | 14 | 0.014 | 1e+06
4 | B2 | 3.2 | 0.0023 | 740000

Biological target: M2 protein of A/Hong Kong/483/1997, on cells (Influenza A virus A/Hong Kong/483/97 (H5N1))
Assay: FACS, supernatant on CHO cells stably expressing M2 of A/Hong Kong/483/97

Row | Molecule | FACS M2-HK MFI [MFI]
5 | B3 | 1700
6 | B4 | 434
7 | B5 | 131
8 | B6 | 1670
9 | B7 | 919
10 | B8 | 963
11 | B9 | 109
12 | B10 | 449
13 | B11 | 442
14 | B12 | 112
15 | B13 | 110
16 | B14 | 967
17 | B15 | 43
18 | B16 | 846
19 | B17 | 218
20 | B18 | 596
